# Marks after values point to notes of the source that are not given here.
# What was measured:
# [1] = BTK FAC plasma stability assay, PBS buffer arm; type: physicochemical; settings: for Plasma stability (h) PBS: incubation to 24 h
# Method in brief: (§1)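 Compound from a 500 µM acetonitrile:water working solution was spiked into K3-EDTA plasma or Dulbecco's PBS and incubated with shaking at 38 °C. Samples taken at 0, 2, 6 and 24 h were precipitated with cold acetonitrile containing glyburide internal standard. Semi-quantitative LC-MS/MS used analyte:internal standard peak area ratios.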
# [2] = BTK FAC plasma stability assay, mouse plasma; type: in vitro ADME
# Method in brief: as §1
# [3] = BTK FAC plasma stability assay, rat plasma; type: in vitro ADME
# Method in brief: as §1
# [4] = BTK FAC plasma stability assay, dog plasma; type: in vitro ADME
# [5] = BTK FAC plasma stability assay, cyno plasma; type: in vitro ADME, cynomolgus monkey
# [6] = target: T1, BTK C481S (Homo sapiens, UniProt Q06187, C481S); assay: PD screen in TMD8 BTK C481S mutant tumor-bearing mice, BTK levels and compound concentrations in blood and tumor; type: in vivo, mouse; settings: for Duration of BTK degradation in mouse ≥90%: 25 umol/kg; for Duration of BTK degradation in mouse ≥90% (days): 50 umol/kg
# T1 construct: endogenous in cells; host or cells: TMD8 BTK C481S mutant tumour xenografts in mice
# Method: All animal studies were conducted in accordance with ethics and procedures covered by permit nos. BS-1975 issued by the Kantonales Veterinäramt Basel-Stadt and in strict adherence to guidelines of the Eidgenössisches Tierschutzgesetz and the Eidgenössische Tierschutzverordnung, Switzerland. All animals had access to food and water ad libitum and were identified with transponders. They were housed in a specific pathogen-free facility with a 12-h light/12-h dark cycle. For PD screen experiments in TMD8 BTK C481S mutant tumor-bearing mice, FAC was injected once. Animals were randomized into groups of 2 and tissue samples collected at day 0, 4, 7 and in some studies day 10 as well. Blood samples were collected and tumors were excised, weighed, frozen in liquid nitrogen and cryogenic dry pulverized with the CryoPrep™ system (model CP-02, Covaris). Concentrations of compounds in blood and tumors were determined by UPLC/MS-MS and BTK levels were analyzed by Meso Scale Discovery.
# T1 sequence (Q06187 whole entry C481S): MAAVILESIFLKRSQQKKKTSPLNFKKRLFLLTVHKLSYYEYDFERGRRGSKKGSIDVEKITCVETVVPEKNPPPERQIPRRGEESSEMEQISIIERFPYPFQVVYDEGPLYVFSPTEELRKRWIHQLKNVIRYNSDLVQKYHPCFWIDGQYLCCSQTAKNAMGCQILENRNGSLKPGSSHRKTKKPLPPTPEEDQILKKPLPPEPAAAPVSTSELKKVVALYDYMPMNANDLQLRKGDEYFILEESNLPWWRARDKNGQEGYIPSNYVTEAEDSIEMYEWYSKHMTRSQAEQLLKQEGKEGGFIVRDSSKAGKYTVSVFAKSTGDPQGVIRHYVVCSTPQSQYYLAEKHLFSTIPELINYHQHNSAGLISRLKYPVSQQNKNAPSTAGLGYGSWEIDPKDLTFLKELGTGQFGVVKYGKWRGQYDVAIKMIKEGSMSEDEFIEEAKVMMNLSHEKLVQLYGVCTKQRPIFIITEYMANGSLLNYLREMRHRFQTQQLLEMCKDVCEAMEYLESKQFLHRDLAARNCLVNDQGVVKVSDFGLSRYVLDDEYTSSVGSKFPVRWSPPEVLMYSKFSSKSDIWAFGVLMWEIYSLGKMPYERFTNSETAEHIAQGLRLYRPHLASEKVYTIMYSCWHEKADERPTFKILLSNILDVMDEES
SMILES,% Release of degrader after 24 h PBS [1] [%],Plasma stability (h) PBS [1] [h],% Release of degrader after 24 h mouse [2] [%],half-life at 5 µM ([2]; incubation to 24 h) [h],% Release of degrader after 24 h rat [3] [%],half-life at 5 µM ([3]; incubation to 24 h) [h],% Release of degrader after 24 h dog [4] [%],half-life at 5 µM ([4]; read-out: Plasma stability (h) dog (converted)) [h],% Release of degrader after 24 h cyno [5] [%],"half-life at 5 µM ([5]; monkey, read-out: Plasma stability (h) cyno) [h]",Duration of BTK degradation in mouse ≥90% ([6]; i.v.) [days],Duration of BTK degradation in mouse ≥90% ([6]; s.c.) [days],Plasma stability (h) mouse ([2]; incubation to 24 h) [h],Plasma stability (h) rat ([3]; incubation to 24 h) [h],Plasma stability (h) dog [4] [h],Plasma stability (h) cyno [5] [h],Duration of BTK degradation in mouse ≥90% (days) ([6]; i.v.)
"CCCCCCCCCCCN(C(=O)CCCCCCCCCCO)C(CCC(=O)NCCOCCOCCOCCOCCOCCOCCOCCOCCOCCOCCOCCOCCC(=O)NCCC(=O)NCCC(=O)OC(C)(C)c1ccc(C(=O)Nc2cc(F)cc(-c3ncnc4[nH]c(-c5ccc(CCN6CCC7(CC6)CCN(C(=O)c6ccc(OC)c(N8CCC(=O)NC8=O)c6)CC7)cc5)cc34)c2C)c(F)c1)C(=O)O (centres unmarked) [Example A5, 2-(4-((3-(6-(4-(2-(9-(3-(2,4-Dioxotetrahydropyrimidin-1(2H)-yl)-4-methoxybenzoyl)-3,9-diazaspiro[5.5]undecan-3-yl)ethyl)phenyl)-7H-pyrrolo[2,3-d]pyrimidin-4-yl)-5-fluoro-2-methylphenyl)carbamoyl)-3-fluorophenyl)-55-(11-hydroxy-N-undecylundecanamido)-2-methyl-4,8,12,52-tetraoxo-3,15,18,21,24,27,30,33,36,39,42,45,48-tridecaoxa-7,11,51-triazahexapentacontan-56-oic acid]",0.1,>48,2,> 48,2.5,> 48,1,> 48,0.5,> 48,10,10,,,,,
"CCCCCCCCCCCN(C(=O)CCCCCCCCCC(=O)O)C(CCC(=O)NCCOCCOCCOCCOCCOCCOCCOCCOCCOCCOCCOCCOCCC(=O)N1CCC[C@H]1CC(=O)OC(C)(C)c1ccc(C(=O)Nc2cc(F)cc(-c3ncnc4[nH]c(-c5ccc(CCN6CCC7(CC6)CCN(C(=O)c6ccc(OC)c(N8CCC(=O)NC8=O)c6)CC7)cc5)cc34)c2C)c(F)c1)C(=O)O (stereo partly drawn) [Example A19, 44-Carboxy-1-((S)-2-(2-((2-(4-((3-(6-(4-(2-(9-(3-(2,4-dioxotetrahydropyrimidin-1(2H)-yl)-4-methoxybenzoyl)-3,9-diazaspiro[5.5]undecan-3-yl)ethyl)phenyl)-7H-pyrrolo[2,3-d]pyrimidin-4-yl)-5-fluoro-2-methylphenyl)carbamoyl)-3-fluorophenyl)propan-2-yl)oxy)-2-oxoethyl)pyrrolidin-1-yl)-1,41,46-trioxo-45-undecyl-4,7,10,13,16,19,22,25,28,31,34,37-dodecaoxa-40,45-diazahexapentacontan-56-oic acid]",0.3,>48,0.5,,0.5,,0.3,,0.2,,,,>48,>48,>48,>48,7* days
"CCCCCCCCCCCN(C(=O)CCCCCCCCCC(=O)O)C(CCC(=O)NCCOCCOCCOCCOCCOCCOCCOCCOCCOCCOCCOCCOCCC(=O)N[C@@H](C)CC(=O)OC(C)(C)c1ccc(C(=O)Nc2cc(F)cc(-c3ncnc4[nH]c(-c5ccc(CCN6CCC7(CC6)CCN(C(=O)c6ccc(OC)c(N8CCC(=O)NC8=O)c6)CC7)cc5)cc34)c2C)c(F)c1)C(=O)O (stereo partly drawn) [Example A20, (6S)-51-Carboxy-2-(4-((3-(6-(4-(2-(9-(3-(2,4-dioxotetrahydropyrimidin-1(2H)-yl)-4-methoxybenzoyl)-3,9-diazaspiro[5.5]undecan-3-yl)ethyl)phenyl)-7H-pyrrolo[2,3-d]pyrimidin-4-yl)-5-fluoro-2-methylphenyl)carbamoyl)-3-fluorophenyl)-2,6-dimethyl-4,8,48,53-tetraoxo-52-undecyl-3,11,14,17,20,23,26,29,32,35,38,41,44-tridecaoxa-7,47,52-triazatrihexacontan-63-oic acid]",0.2,>48,0.5,,0.3,,0.4,,0.2,,,,>48,>48,>48,>48,7* days
"CCCCCCCCCCCN(C(=O)CCCCCCCCCC(=O)O)C(CCC(=O)NCCOCCOCCOCCOCCOCCOCCOCCOCCOCCOCCOCCOCCC(=O)N[C@H](C)C(=O)OC(C)(C)c1ccc(C(=O)Nc2cc(F)cc(-c3ncnc4[nH]c(-c5ccc(CCN6CCC7(CC6)CCN(C(=O)c6ccc(OC)c(N8CCC(=O)NC8=O)c6)CC7)cc5)cc34)c2C)c(F)c1)C(=O)O (stereo partly drawn) [Example A17, (5R)-50-Carboxy-2-(4-((3-(6-(4-(2-(9-(3-(2,4-dioxotetrahydropyrimidin-1(2H)-yl)-4-methoxybenzoyl)-3,9-diazaspiro[5.5]undecan-3-yl)ethyl)phenyl)-7H-pyrrolo[2,3-d]pyrimidin-4-yl)-5-fluoro-2-methylphenyl)carbamoyl)-3-fluorophenyl)-2,5-dimethyl-4,7,47,52-tetraoxo-51-undecyl-3,10,13,16,19,22,25,28,31,34,37,40,43-tridecaoxa-6,46,51-triazadohexacontan-62-oic acid]",1.2,>48,2.3,,2.5,,3.7,,,,4,,>48,>48,33.3,,
"CCCCCCCCCCCN(C(=O)CCCCCCCCCC(=O)O)C(CCC(=O)NCCOCCOCCOCCOCCOCCOCCOCCOCCOCCOCCOCCOCCC(=O)N[C@@H](C)C(=O)OC(C)(C)c1ccc(C(=O)Nc2cc(F)cc(-c3ncnc4[nH]c(-c5ccc(CCN6CCC7(CC6)CCN(C(=O)c6ccc(OC)c(N8CCC(=O)NC8=O)c6)CC7)cc5)cc34)c2C)c(F)c1)C(=O)O (stereo partly drawn) [Example A16, (5S)-50-Carboxy-2-(4-((3-(6-(4-(2-(9-(3-(2,4-dioxotetrahydropyrimidin-1(2H)-yl)-4-methoxybenzoyl)-3,9-diazaspiro[5.5]undecan-3-yl)ethyl)phenyl)-7H-pyrrolo[2,3-d]pyrimidin-4-yl)-5-fluoro-2-methylphenyl)carbamoyl)-3-fluorophenyl)-2,5-dimethyl-4,7,47,52-tetraoxo-51-undecyl-3,10,13,16,19,22,25,28,31,34,37,40,43-tridecaoxa-6,46,51-triazadohexacontan-62-oic acid]",2,>48,1.9,,11,,5,,,,4,,>48,>48,31.2,,
"CCCCCCCCCCCN(C(=O)CCCCCCCCCC(=O)O)[C@@H](CCC(=O)NCCOCCOCCOCCOCCOCCOCCOCCOCCOCCOCCOCCOCCC(=O)N(CCC(=O)OC(C)(C)c1ccc(C(=O)Nc2cc(F)cc(-c3ncnc4[nH]c(-c5ccc(CCN6CCC7(CC6)CCN(C(=O)c6ccc(OC)c(N8CCC(=O)NC8=O)c6)CC7)cc5)cc34)c2C)c(F)c1)CC(=O)O)C(=O)O [Example A24, (S)-2-(3-((2-(4-((3-(6-(4-(2-(9-(3-(2,4-Dioxotetrahydropyrimidin-1(2H)-yl)-4-methoxybenzoyl)-3,9-diazaspiro[5.5]undecan-3-yl)ethyl)phenyl)-7H-pyrrolo[2,3-d]pyrimidin-4-yl)-5-fluoro-2-methylphenyl)carbamoyl)-3-fluorophenyl)propan-2-yl)oxy)-3-oxopropyl)-3,43,48-trioxo-47-undecyl-6,9,12,15,18,21,24,27,30,33,36,39-dodecaoxa-2,42,47-triazaheptapentacontane-1,46,57-tricarboxylic acid]",2.8,>48,7.4,,7.2,,5.9,,,,10,10,>48,>48,>48,,

# Reference: patent publication US20240216513A1, “FATTY ACID-BIFUNCTIONAL DEGRADER CONJUGATES AND THEIR METHODS OF USE” (Novartis AG, priority 2021, published 2024)
